Data taken from paper PMC3205929 (The Journal of neuroscience : the official journal of the …, 2011).

Target: DAT 587–590(4A) mutant expressed in PC12 cells (human, UniProt Q01959 1-620, 587–590(4A))
Test: co-IP

basal interaction with Rin, % of wild type DAT: 300 % of wild type DAT/Rin interactions
B1: Rin, endogenous in PC12 cells (natural protein, rat (endogenous in PC12), UniProt Q5BJQ5 1-217, looked up)
chain: MEAENEAHCCPGSSSGGSREYKVVMLGAGGVGKSAVTMQFISHQFPDYHDPTIEDAYKTQVRIDNEPAYLDILDTAGQAEFTAMREQYMRGGEGFIICYSVTDRQSFQEAAKFKELIFQVRHTYEIPLVLVGNKIDLEQFRQVSTEEGMTLARDYNCAFFETSAALRFGIDDAFQGLVREIRRKESMLSLVERKLKRKDSLWKKIKASLKKKRENMI
